What is called Kd is the equilibrium constant for the complex coming apart. The low end stands for tighter binding, the high end for weaker binding.

Positions count from the first letter of the chain named. Names may count otherwise.

Five molecules from US20230059181A1 (EPSILOGEN, published 2023) can be followed below.

The target in experiment [1] is T1, Human CD16A 176 Phe (FcγRIIIA176Phe), His-tagged (human, UniProt P08637 17-208).
T1 construct: also called hFcγRIIIa 176F
Put plainly: SPR single cycle, steady state fit, His-tagged receptor captured, antibody as analyte.
From the text: (§1) FcRs were captured on a CM5 sensor chip pre-coupled using a His capture kit (Cytiva, Uppsala, Sweden) using standard amine chemistry.
(§2) At the start of each cycle His-tagged Fc receptors diluted in HEPES buffered saline containing 0.05% v/v Surfactant P20 (HBS-P+) were loaded to a specified RU level (Table 7). A five point, three-fold dilution range of test antibody without regeneration between each concentration was used for each receptor tested. […] In all cases, antibodies were passed over the chip in increasing concentrations followed by a single dissociation step. Following dissociation, the chip was regenerated with two injections of Glycine pH 1.5. The signal from the reference channel Fc1 (blank) was subtracted from that of the Fc loaded with receptor to correct for differences in non-specific binding to the reference surface.

Experiment [2] concerns the target T2, Human CD16B (FcγRIIIB), His-tagged (human, UniProt O75015 17-200).
T2 construct: also called hFcγRIIIb
Described as above.
From the text: as §1, §2

Experiment [3] concerns the target T3, Human CD16A 176 Val (FcγRIIIA176Val), His-tagged (human, UniProt P08637 17-208).
T3 construct: also called FcγRIIIA (CD16A); hFcγRIIIa 176V
The experiment is described as above.
From the text: as §1, §2

The target of experiment [4] is T4, HMW-MAA (high molecular weight-melanoma associated antigen) on A375 cells (UniProt Q6UVK1 30-2322).
T4 construct: whole, on cells; also called CSPG4; chondroitin sulfate proteoglycan 4
T4 sequence (Q6UVK1 30-2322): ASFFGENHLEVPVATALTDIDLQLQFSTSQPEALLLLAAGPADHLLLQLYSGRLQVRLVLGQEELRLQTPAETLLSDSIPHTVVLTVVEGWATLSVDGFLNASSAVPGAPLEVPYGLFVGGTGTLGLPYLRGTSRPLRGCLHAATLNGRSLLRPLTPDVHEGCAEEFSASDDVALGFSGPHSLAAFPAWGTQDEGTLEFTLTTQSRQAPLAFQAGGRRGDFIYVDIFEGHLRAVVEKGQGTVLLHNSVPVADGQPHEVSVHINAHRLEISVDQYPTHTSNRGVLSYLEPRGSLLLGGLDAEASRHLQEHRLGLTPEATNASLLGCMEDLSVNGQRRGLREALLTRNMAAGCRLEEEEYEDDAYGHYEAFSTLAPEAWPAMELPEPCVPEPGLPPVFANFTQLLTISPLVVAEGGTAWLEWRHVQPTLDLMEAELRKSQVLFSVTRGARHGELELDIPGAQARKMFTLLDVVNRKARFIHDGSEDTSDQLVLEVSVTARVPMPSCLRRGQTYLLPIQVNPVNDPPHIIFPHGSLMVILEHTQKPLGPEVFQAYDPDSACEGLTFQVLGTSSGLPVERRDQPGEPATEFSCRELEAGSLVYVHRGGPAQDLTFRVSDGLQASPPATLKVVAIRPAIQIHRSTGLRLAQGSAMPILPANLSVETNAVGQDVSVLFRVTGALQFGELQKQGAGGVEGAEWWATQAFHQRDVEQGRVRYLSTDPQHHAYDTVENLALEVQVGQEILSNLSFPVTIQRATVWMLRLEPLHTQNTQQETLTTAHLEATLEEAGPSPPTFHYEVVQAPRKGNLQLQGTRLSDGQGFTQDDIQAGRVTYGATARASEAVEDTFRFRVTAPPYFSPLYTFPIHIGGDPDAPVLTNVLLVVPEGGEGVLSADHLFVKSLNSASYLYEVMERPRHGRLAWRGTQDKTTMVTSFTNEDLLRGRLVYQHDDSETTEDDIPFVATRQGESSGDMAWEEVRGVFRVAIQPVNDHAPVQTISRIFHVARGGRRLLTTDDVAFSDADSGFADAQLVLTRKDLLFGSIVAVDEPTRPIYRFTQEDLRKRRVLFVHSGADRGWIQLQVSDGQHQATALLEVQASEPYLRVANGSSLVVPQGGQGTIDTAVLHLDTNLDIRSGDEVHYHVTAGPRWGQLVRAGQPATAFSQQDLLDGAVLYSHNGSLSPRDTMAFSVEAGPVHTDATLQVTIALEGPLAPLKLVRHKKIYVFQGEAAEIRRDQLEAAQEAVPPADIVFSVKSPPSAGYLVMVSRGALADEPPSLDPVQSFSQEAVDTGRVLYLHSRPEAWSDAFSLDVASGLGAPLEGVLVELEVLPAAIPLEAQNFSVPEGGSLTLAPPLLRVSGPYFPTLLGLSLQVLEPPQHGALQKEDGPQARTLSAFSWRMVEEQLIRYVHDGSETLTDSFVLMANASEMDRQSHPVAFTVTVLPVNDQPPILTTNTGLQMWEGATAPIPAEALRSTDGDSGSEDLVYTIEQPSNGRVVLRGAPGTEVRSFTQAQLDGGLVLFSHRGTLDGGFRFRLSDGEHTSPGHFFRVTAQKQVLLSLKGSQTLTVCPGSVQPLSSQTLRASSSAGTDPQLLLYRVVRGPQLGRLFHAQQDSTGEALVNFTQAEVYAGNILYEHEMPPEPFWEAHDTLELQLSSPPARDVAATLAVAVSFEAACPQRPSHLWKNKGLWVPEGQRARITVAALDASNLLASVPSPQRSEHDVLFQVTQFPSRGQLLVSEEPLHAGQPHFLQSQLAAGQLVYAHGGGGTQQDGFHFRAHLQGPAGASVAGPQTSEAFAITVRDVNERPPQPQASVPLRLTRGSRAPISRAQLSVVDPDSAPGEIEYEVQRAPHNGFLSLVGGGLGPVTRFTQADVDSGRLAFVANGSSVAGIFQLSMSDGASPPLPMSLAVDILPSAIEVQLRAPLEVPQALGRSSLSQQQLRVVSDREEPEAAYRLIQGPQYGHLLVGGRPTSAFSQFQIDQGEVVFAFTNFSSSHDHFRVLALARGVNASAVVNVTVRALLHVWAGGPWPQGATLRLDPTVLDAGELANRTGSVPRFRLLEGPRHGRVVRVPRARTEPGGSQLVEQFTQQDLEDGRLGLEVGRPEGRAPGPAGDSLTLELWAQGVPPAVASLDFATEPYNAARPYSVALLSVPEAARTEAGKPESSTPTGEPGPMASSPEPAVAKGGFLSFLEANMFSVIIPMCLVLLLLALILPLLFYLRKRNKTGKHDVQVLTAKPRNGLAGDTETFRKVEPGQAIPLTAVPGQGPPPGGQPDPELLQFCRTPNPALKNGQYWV
Put plainly: flow cytometry on A375 cells, FITC goat anti-human IgG secondary. (A flow cytometer gives signals particle by particle.)
Method: (§3) A375 cells were cultured using standard methods. When A375 cells were confluent, the cells were harvested. In brief, cells were washed with PBS before incubation with TrypLE™ at 37° C. for 10 minutes to detach the cells from the flask. Cells were resuspended in 10 mL of media and centrifuged for 3 minutes at 250 g. Cells were then resuspended in 1 mL FACS buffer and counted on the Cellometer® to determine the cell number and viability. Following this, cells were diluted to 1×10⁶ cells per mL with FACS buffer, and 100 μL of this cell suspension plated per well on a plate.
(§4) Binding of purified IGEGs to A375 cells (ATCC, Virginia, US) was assessed by flow cytometry using a Attune® NxT Acoustic Focusing Cytometer running Attune Software V3.1.2 (ThermoFisher Scientific, Loughborough, UK). […] Cells were washed and resuspended in FACS buffer and then acquired on the Attune® NxT Acoustic Focusing Cytometer. The data was analysed using FlowJo™ Software Version 10 (Becton, Dickinson and Company, New Jersey, US) and GraphPad Prism 8 (GraphPad Software, California, US).

Experiment [5] concerns the target T5, Human FcRn (neonatal Fc receptor) (human, UniProt P55899 24-297; P61769 21-119).
T5 construct: also called hFcRn
Put plainly: SPR steady state, pH 6.0, FcRn amine-coupled, antibody as analyte; pH 6.0; 31.25 nM to 2000 nM antibody over hFcRn on the chip.
Method: (§5) Antibodies were passed over the chip with increasing concentrations at a flow rate of 30 μl/min and at 25° C. The injection time was 40 s per concentration and the dissociation time was 75 s. […] Interactions were analysed using a steady state model (see FIGS. 19a to 19d for example data).

For experiment [6], the target named is T6, Human FcεRIα (Fc epsilon RI alpha), His-tagged (human, UniProt P12319 26-205).
T6 construct: also called FceRIa; hFcεR1
T6 sequence (looked up): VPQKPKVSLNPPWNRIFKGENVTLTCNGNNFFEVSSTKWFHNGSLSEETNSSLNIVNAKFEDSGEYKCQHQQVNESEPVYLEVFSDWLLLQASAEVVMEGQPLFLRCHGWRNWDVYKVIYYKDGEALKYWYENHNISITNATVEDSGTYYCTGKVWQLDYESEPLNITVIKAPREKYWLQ
As to the kind of experiment: SPR single cycle, 1:1 fit, His-tagged receptor captured, antibody as analyte.
From the text: as §1, §2

In experiment [7] the target is T7, Human CD64 (FcγRI), His-tagged (human, UniProt P12314 16-288).
T7 construct: also called FcgRI; hFcγRI
T7 sequence (P12314 16-288 limits assumed): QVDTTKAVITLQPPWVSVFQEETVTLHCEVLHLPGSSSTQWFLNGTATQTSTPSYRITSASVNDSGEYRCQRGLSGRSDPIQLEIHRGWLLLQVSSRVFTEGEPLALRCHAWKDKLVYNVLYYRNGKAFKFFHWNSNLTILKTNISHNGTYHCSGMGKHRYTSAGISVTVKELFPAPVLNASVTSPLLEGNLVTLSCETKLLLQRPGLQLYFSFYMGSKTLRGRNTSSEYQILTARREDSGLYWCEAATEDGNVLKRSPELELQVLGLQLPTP
The description is as above.
From the text: as §1, §2

Experiment [8] addresses T5, Human FcRn (neonatal Fc receptor). As to the kind of experiment: SPR (Biacore T200), hFcRn amine-coupled to CM5 chip, antibody as analyte 31.25-2000 nM, pH 6.0, raw sensorgrams. (SPR reads the build-up and loss of mass on a sensor chip optically.)
Method: as §5
Experiment [9] addresses T4, HMW-MAA (high molecular weight-melanoma …). Put plainly: flow cytometry on A375 cells, FITC goat anti-human IgE secondary.
Method: as §3, §4
For experiment [10], the target named is T1, Human CD16A 176 Phe (FcγRIIIA176Phe), …. As to the kind of experiment: SPR single cycle, His-tagged receptor captured, antibody as analyte.
From the text: as §1, §2
The target in experiment [11] is T2, Human CD16B (FcγRIIIB), His-tagged. The description is as above.
From the text: as §1, §2
For experiment [12], the target named is T7, Human CD64 (FcγRI), His-tagged. Put plainly: SPR (Biacore T200) single cycle kinetics, His-tagged FcγRI captured on anti-His chip, antibody as analyte 0.411-33.33 nM.
From the text: as §1, §2
For experiment [13], the target named is T3, Human CD16A 176 Val (FcγRIIIA176Val), …. As to the kind of experiment: SPR (Biacore T200) single cycle, His-tagged FcγRIIIA176Val captured on anti-His chip, antibody as analyte, raw sensorgrams.
From the text: as §1, §2
Experiment [14] addresses T5, Human FcRn (neonatal Fc receptor). Put plainly: SPR (Biacore T200), hFcRn amine-coupled to CM5 chip, antibody as analyte 31.25-2000 nM, pH 6.0, raw sensorgrams [Continued].
Method: as §5

T2 sequence (O75015 17-200 limits assumed): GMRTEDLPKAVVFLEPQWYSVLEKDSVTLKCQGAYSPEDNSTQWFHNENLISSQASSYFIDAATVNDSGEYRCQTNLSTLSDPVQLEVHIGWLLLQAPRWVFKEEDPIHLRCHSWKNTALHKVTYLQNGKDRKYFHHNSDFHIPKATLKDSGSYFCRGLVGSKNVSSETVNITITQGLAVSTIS
T3 sequence (P08637 17-208 F176V limits assumed): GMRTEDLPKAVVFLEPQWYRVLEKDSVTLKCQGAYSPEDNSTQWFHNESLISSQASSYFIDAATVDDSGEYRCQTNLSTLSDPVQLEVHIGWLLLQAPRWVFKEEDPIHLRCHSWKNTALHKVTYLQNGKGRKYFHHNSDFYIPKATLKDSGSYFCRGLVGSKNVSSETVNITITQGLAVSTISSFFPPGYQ
T5 sequence (P55899 24-297 limits assumed, chain 1 of 2): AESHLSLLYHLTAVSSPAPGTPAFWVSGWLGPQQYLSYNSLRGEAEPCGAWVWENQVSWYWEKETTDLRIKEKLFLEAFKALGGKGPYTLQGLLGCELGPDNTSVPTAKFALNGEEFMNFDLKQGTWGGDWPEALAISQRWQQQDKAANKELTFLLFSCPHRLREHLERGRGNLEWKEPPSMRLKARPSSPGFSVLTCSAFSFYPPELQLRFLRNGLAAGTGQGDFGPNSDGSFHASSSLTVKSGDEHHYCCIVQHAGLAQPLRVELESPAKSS
T5 sequence (P61769 21-119 limits assumed, chain 2 of 2): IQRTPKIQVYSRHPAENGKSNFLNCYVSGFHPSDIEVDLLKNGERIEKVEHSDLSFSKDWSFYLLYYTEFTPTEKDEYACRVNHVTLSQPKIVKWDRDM
T1 sequence (P08637 17-208 limits assumed): as the sequence (P08637 17-208 F176V limits assumed) above, with V160F counted along it

B1: HMW-MAA_IGEG (HMW-MAA IgE IgG-Fc) (antibody)
heavy: not shown
light: DIQLTQSPSFLSASVGDRVTITCKASQNVDTNVAWYQQKPGKAPKPLLFSASYRYTGVPSRFSGSGSGTDFTLTISSLQPEDFATYFCQQYNSYPLTFGGGTKVEIKRTVAAPSVFIFPPSDEQLKSGTASVVCLLNNFYPREAKVQWKVDNALQSGNSQESVTEQDSKDSTYSLSSTLTLSKADYEKHKVYACEVTHQGLSSPVTKSFNRGEC
notes: also called CH IGEG
For the molecule B1, the Kd was 665 nM in experiment [1]; 1480 nM in experiment [2]; 386 nM in [3]; 1020 nM in [5]; 0.599 nM in experiment [6]; 1.63 nM in experiment [7]. Further, the binding result in experiment [4] is “binds”.

B2: HMW-MAA_IgE (antibody)
heavy: EVQLVQSGGGLVQPGGSLKLSCAVSGFTFSNYWMNWVRQAPGKGLEWVGEIRLKSNNFGRYYAESVKGRFTISRDDSKNTAYLQMNSLKTEDTAVYYCTSYGNYVGHYFDHWGQGTLVTVSSASTQSPSVFPLTRCCKNIPSNATSVTLGCLATGYFPEPVMVTWDTGSLNGTTMTLPATTLTLSGHYATISLLTVSGAWAKQMFTCRVAHTPSSTDWVDNKTFSVCSRDFTPPTVKILQSSCDGGGHFPPTIQLLCLVSGYTPGTINITWLEDGQVMDVDLSTASTTQEGELASTQSELTLSQKHWLSDRTYTCQVTYQGHTFEDSTKKCADSNPRGVSAYLSRPSPFDLFIRKSPTITCLVVDLAPSKGTVNLTWSRASGKPVNHSTRKEEKQRNGTLTVTSTLPVGTRDWIEGETYQCRVTHPHLPRALMRSTTKTSGPRAAPEVYAFATPEWPGSRDKRTLACLIQNFMPEDISVQWLHNEVQLPDARHSTTQPRKTKGSGFFVFSRLEVTRAEWEQKDEFICRAVHEAASPSQTVQRAVSVNPGK
light: B1 light
notes: also called HMW-MAA IgE-WT; anti-HMW-MAA IgE
In the case of B2, the binding result was “no binding (tested: 2000 nM)” in [8]; “binds” in experiment [9]; “no binding (tested: 8000 nM)” in experiment [10]; “no binding (tested: 8000 nM)” in experiment [11]; “no binding (tested: 33.33 nM)” in experiment [12]; “no binding (tested: 3e-6 M (top point of FIG. 17D))” in [13]. In addition, the Kd in [6] stood at 0.508 nM.

B3: HMW-MAA_IGEG-dFcRn (antibody, human IgG1, kappa)
heavy: EVQLVQSGGGLVQPGGSLKLSCAVSGFTFSNYWMNWVRQAPGKGLEWVGEIRLKSNNFGRYYAESVKGRFTISRDDSKNTAYLQMNSLKTEDTAVYYCTSYGNYVGHYFDHWGQGTLVTVSSASTQSPSVFPLTRCCKNIPSNATSVTLGCLATGYFPEPVMVTWDTGSLNGTTMTLPATTLTLSGHYATISLLTVSGAWAKQMFTCRVAHTPSSTDWVDNKTFSVCSRDFTPPTVKILQSSCDGGGHFPPTIQLLCLVSGYTPGTINITWLEDGQVMDVDLSTASTTQEGELASTQSELTLSQKHWLSDRTYTCQVTYQGHTFEDSTKKCADSNPRGVSAYLSRPSPFDLFIRKSPTITCLVVDLAPSKGTVNLTWSRASGKPVNHSTRKEEKQRNGTLTVTSTLPVGTRDWIEGETYQCRVTHPHLPRALMRSTTKTSGPRAAPEVYAFATPEWPGSRDKRTLACLIQNFMPEDISVQWLHNEVQLPDARHSTTQPRKTKGSGFFVFSRLEVTRAEWEQKDEFICRAVHEAASPSQTVQRAVSVNPGKRSEPKSCDKTHTCPPCPAPELLGGPSVFLFPPKPKDTLMASRTPEVTCVVVDVSHEDPEVKFNWYVDGVEVHNAKTKPREEQYNSTYRVVSVLTVLAQDWLNGKEYKCKVSNKALPAPIEKTISKAKGQPREPQVYTLPPSREEMTKNQVSLTCLVKGFYPSDIAVEWESNGQPENNYKTTPPVLDSDGSFFLYSKLTVDKSRWQQGNVFSCSVMHEALHNAYTQKSLSLSPGK
light: B1 light
On to B3, for which the Kd came out at 960 nM in experiment [1]; 2030 nM in [2]; 535 nM in [3]; 0.556 nM in [6]; 2.02 nM in [7]. The binding result was “binds” in experiment [4] and “no binding (tested: 2000 nM)” in experiment [14].

B4: HMW-MAA_IGEG-C220S-dFcRn (antibody)
heavy: B3 heavy with C557S
light: B1 light
Turning to B4, the dissociation constant Kd in experiment [1] was found to be 1160 nM; in [2], 2780 nM; in [3] it was 601 nM; in experiment [6] it was 0.535 nM; in experiment [7] it was 2.18 nM. Further, the figures for the binding result in experiment [4] and in experiment [14] were “binds” and “no binding (tested: 2000 nM)”, respectively.

B5: HMW-MAA_IGEG-C220S (HMW-MAA IgE-IgG-Fc C220S) (antibody)
heavy: not shown
light: B1 light
As for B5, the equilibrium dissociation constant (Kd) in experiment [1] was determined as 775 nM; in experiment [2], 1870 nM; in experiment [3], 400 nM; in [5], 1050 nM; in experiment [6] it was 0.493 nM; in [7] it was 1.67 nM. Moreover, in experiment [4], the binding result is “binds”.
